The values that follow come from patent US20020015981A1 (Amgen, published 2002).

In the experiment the target is T1, human α2-polyHis-tag (human, UniProt Q96T91 24-129).
T1 construct: also called human α2 polypeptide; alpha-2; not shown: polyHis tag
T1 sequence (looked up): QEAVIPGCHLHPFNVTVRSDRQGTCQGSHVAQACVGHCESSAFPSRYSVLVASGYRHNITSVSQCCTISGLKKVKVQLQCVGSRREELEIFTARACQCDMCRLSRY
Kind of experiment: heterodimerization assay: co-transfection, immunoprecipitation, Western blot. The protocol: A human α2-polyHis-tag mammalian expression vector and a human β10-FLAG-tag mammalian expression vector were co-transfected into 293 cells and serum free conditioned media was harvested after 72 hours. Immunoprecipitation was done using anti-FLAG M2-Agarose affinity beads (Cat# A1205, Sigma, St. Louis, Mo.). A Western blot of this immunoprecipitate was probed with affinity purified anti-α2 rabbit polyclonal antibodies (example 4) that had been conjugated to Horse Radish Peroxidase (Linx HRP Rapid Protein Conjugation Kit, cat# K8050-01, Invitrogen Corp., Carlsbad, Calif.). A strong α2-polyHis-tag band was observed using the ECL Western Blot detection kit (cat#RPN 2106, Amersham Pharmacia Biotech, Piscataway, N.J.). […] No α2-polyHis-tag band was observed if either of these 2 components was left out of the experiment or if plain agarose beads (i.e. without anti-FLAG antibodies) were used for the immunoprecipitation step.
(In western blotting, separated proteins are transferred to a membrane and probed.)

B1: human β10-FLAG-tag (ligand)
chain: ASSGNLRTFVGCAVREFTFLAKKPGCRGLRITTDACWGRCETWEKPILEPPYIEAHHRVCTYNETKQVTVKLPNCAPGVDPFYTYPVAIRCDCGACSTATTECETI
notes: Secreted from transfected 293 cells; the cleavage site is predicted, not determined; also called human β10 polypeptide; beta-10; not shown: FLAG tag
For B1, the binding result is “binds”.
